Here are results for 4 substances from US20210180062.

On to “SynGAP α2 (isoform construct co-transfected in the small GTPase assay)”, for which the “GAP activity (reduction of GTP-bound small G protein, pull-down with effector-domain beads)” value in the series on Ras is “SynGAP α1 and α2 has mild preference towards Ras rather than Rap”. For “SynGAP α1 (isoform construct co-transfected in the small GTPase assay)”, the “GAP activity (reduction of GTP-bound small G protein, pull-down with effector-domain beads)” value with Ras is “SynGAP α1 and α2 has mild preference towards Ras rather than Rap”.

On to “SynGAP β (isoform construct co-transfected in the small GTPase assay)”, for which the “GAP activity (reduction of GTP-bound small G protein, pull-down with effector-domain beads)” value in the series with Rac1 and in the series on Ras was “SynGAP β generally has highest GAP activity into all small G proteins among other isoforms” each time. On to “SynGAP γ (isoform construct co-transfected in the small GTPase assay)”, for which the “GAP activity (reduction of GTP-bound small G protein, pull-down with effector-domain beads)” value in the series with Rap1 is “SynGAP β and γ has mild preference towards Rap1”.
